According to patent US12213977B2, “Methods and compositions for treating melanoma” (THE REGENTS OF THE UNIVERSITY OF CALIFORNIA, priority 2017, dated 2025):

Tested on: melanoma cell lines
Test: Immunoblot of differentiation biomarkers (AXL, NGFR, MITF, MART-1) and pERK
Assay type: cell-based, human
Conditions: IFNγ=100 U/mL, TNFα=1000 U/mL; M229, M397, M249
Description: Cells were lysed in modified RIPA buffer (50 mM Tris-HCl (pH 7.5), […], 10 mM β-glycerophosphate, 1% NP-40, 0.25% sodium deoxycholate, 10 mM sodium pyrophosphate, 30 mM sodium fluoride, 1 mM EDTA, 1 mM vanadate, 20 μg/ml aprotinin, 20 μg/ml leupeptin, and 1 mM phenylmethylsulfonyl fluoride). Whole-cell lysates were resolved by SDS-PAGE on TruPAGE 4-15% gradient gels (Sigma-Aldrich) and blotted onto nitrocellulose membranes. Membranes were blocked overnight with 5% milk and then incubated sequentially with primary and then IRDye-conjugated secondary antibodies (Li-Cor). Blots were imaged using the Odyssey Infrared Imaging System (Li-Cor). Primary antibodies used for Western blot analysis were MITF (DGG7V, CST), MART-1 (A103, SCBT), and AXL (C89E7, CST).

B1: IFNγ: Recombinant IFNγ, cytokine secreted by T cells, obtained from Peprotech (protein, UniProt P01579 24-161, looked up)
Interferon gamma: QDPYVKEAENLKKYFNAGHSDVADNGTLFLGILKNWKEESDRKIMQSQIVSFYFKLFKNFKDDQSIQKSVETIKEDMNVKFFNSNKKKRDDFEKLTNYSVTDLNVQRKAIHELIQVMAELSPAAKTGKRKRSQMLFRG
  differentiation state (up-regulation of AXL, decreased MITF or MART-1): induced de-differentiation
